B1: NEUROD6 (parent)
chain: YHSPELTTPPGHGTLDNSKSMKPY
B2: TRIM35 (parent)
chain: WEVQVSPTCPVCKDRASPADLRTN

Variants of: B1
Test: protein stability index of a GFP-peptide fusion (GPS, HEK-293T) (PSI 1-6); higher = more stable
Details: c terminus: a fixed tail appended
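Also: lentivirally expressed fusions sorted by FACS into six bins by GFP to DsRed ratio, PSI derived from sequencing read proportions per bin multiplied by bin number.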

Protein stability index of substitutions, site by site:
K22: E 2.46; G 1.75; L 2.2; I 2.41; M 2.15; Y 1.83; P 1.82; W 2.32; D 2.55; H 1.87; N 2.14; Q 2.15; C 1.81; T 2.32; R 2.47; F 2.25; S 2.26; A 2.56; V 2.06
N17: L 1.72; V 2.15; M 1.55; S 2.3; K 2.14; F 2.14; G 2.68; R 2.01; D 2.21; Q 2.52; W 2.51; E 2.68; C 1.69; A 2.51; Y 1.88; H 1.99; P 2.15; T 2.15; I 2.23
S18: T 2; H 2.04; A 2.09; R 2; L 1.74; K 2.43; D 2.06; F 1.81; P 2.17; C 1.81; I 1.95; Q 2.22; N 2.54; M 1.76; E 2.16; W 1.8; Y 1.94; V 2.38; G 2.39
S20: F 1.9; H 1.87; C 1.86; E 2.54; T 2.87; L 1.79; M 2.43; Y 2.23; N 2.33; W 1.97; K 1.94; A 2.04; D 2.28; R 1.4; Q 2.48; V 1.92; G 2.28; I 1.7; P 2.3
K19: F 1.85; L 1.96; Q 2.24; D 2.85; S 2.17; M 2.37; H 2.07; Y 1.9; E 2.59; I 2.33; V 2.39; N 2.44; C 2.05; P 2.22; R 1.92; G 2.21; T 2.35; A 2.3; W 1.5
D16: P 2.74; T 2.05; Q 2.59; S 2.26; K 1.86; V 2.18; L 1.98; M 2.45; Y 2.05; N 2.27; I 1.81; R 1.63; W 2.19
Y24: M 2.02; V 2.41; D 2.44; Q 2.62; F 2.21; K 2.23; T 2.55; C 2.38; W 1.98; S 2.36; G 2.67; N 2.44; R 2.48; I 2.21; L 2.27; E 2.91; A 2.24; H 2.45
M21: H 2.56; L 2.44; R 2.23; W 2.14; C 2.42; Q 2.32; P 2.62; N 2.82; E 2.35; A 2.16; Y 1.54; S 2.18; I 2.84; V 2.42; D 2.39; F 2.18; K 2.36; G 2.71; T 2.67
P23: E 2.41; H 2.24; W 2.67; N 2.36; C 1.87; Q 2.08; S 1.9; V 2.18; Y 1.77; K 2.33; L 2.44; T 1.77; R 1.99; I 1.69; G 2.23; M 1.98; A 2.36; F 2.33; D 2.28

Variants of: B2
Test: as above
Details: c terminus: a fixed tail appended

Protein stability index, by site and new letter:
S6: M 1.89; P 2.87; F 2.4; N 3.46; A 1.87; D 2.84; H 3.03; E 1.71; Q 2.53
V3: R 2.31; L 2.55; I 2.89; N 3.38
R15: H 2.46; W 2.53; Y 2.34; Q 2.54
E2: K 2.42; T 2.02
V11: C 1.68; P 3.86; D 3.64; A 2.37; M 1.23; F 1.78; G 2.89; R 2.93
P18: W 1.39; S 2.51; K 2.52; Y 2.15; H 1.6; N 2.39
W1: E 3.52; I 2.08; N 3.23; T 2.79; Q 3.1; Y 2.65; S 2.6; L 3.13
T23: N 2.74; W 2.02; Y 1.73; H 2.93; Q 2.58; F 1.82; I 2.18; D 3.45
Q4: Y 3.38; K 2.07; N 2.73; L 2.08; R 1.9; P 3.58; E 2.08
R22: T 2.91; D 3.8; N 2.75; L 2.45; P 3.74; Y 2.49; E 4.1
D20: V 1.97; M 1.71; K 2.08; A 2.02; G 1.85; S 1.68; P 1.85; H 1.66
A19: D 3.38; S 1.78; E 3.35; M 2.42; H 2.24; N 1.91; G 2.24; T 1.75; Q 2.31; I 2.05; L 2.12; R 1.54; Y 1.77
K13: T 2.31; F 1.94; G 1.7; C 1.72
V5: Y 2.58; M 2.41; A 2.15; W 2.4; H 2.97; K 2.98; G 2.48; I 2.27
N24: D 3.14; M 1.55; F 1.55; L 1.71; R 2.74; V 1.19; Y 1.6
C12: T 4.54; K 3.88; I 3.4; D 4.14; E 4.81; H 3.46; M 4.44; Q 3.9; V 3.89
P7: V 1.32; Q 2.43; A 1.72; M 1.33; L 1.9; R 2.19; H 2.2; D 2.43; N 1.8
L21: E 2.98; I 2.59; G 2.04; K 3.15; A 3.04; R 2.37; H 2.54; M 2.13; T 2.62
S17: C 1.81; I 2.66; V 2.23; Q 2.84; P 2.83; M 2.01; H 2.08; F 2.19; Y 4.01; L 2.75
T8: P 2.92; A 3.17; D 3.42; F 1.85; I 2
P10: R 2.42; L 2.65; E 2.23; A 1.25; Y 2.29; T 2.38; F 2.89; W 2.51; I 2.34
A16: I 1.28; Y 2.08; G 2.15; D 2.26
C9: A 4.38; V 4.11; D 4.9; T 3.94
D14: Y 1.62; S 2.5; I 1.93; T 1.83; Q 2.18; W 2.71; V 1.61; P 1.9
